# Test results taken from publication PMC8262878, “GP96 Drives Exacerbation of Secondary Bacterial Pneumonia following Influenza A Virus Infection” (mBio, 2021).
# B1: recombinant AliA (natural protein)
# chain: CSGSGSSTKGEKTFSYIYETDPDNLNYLTTAKAATANITSNVVDGLLENDRYGNFVPSMAEDWSVSKDGLTYTYTIRKDAKWYTSEGEEYAAVKAQDFVTGLKYAADKKSDALYLVQESIKGLDAYVKGEIKDFSQVGIKALDEQTVQYTLNKPESFWNSKTTMGVLAPVNEEFLNSKGDDFAKATDPSSLLYNGPYLLKSIVTKSSVEFAKNPNYWDKDNVHVDKVKLSFWDGQDTSKPAENFKDGSLTAARLYPTSASFAELEKSMKDNIVYTQQDSITYLVGTNIDRQSYKYTSKTSDEQKASTKKALLNKDFRQAIAFGFDRTAYASQLNGQTGASKILRNLFVPPTFVQADGKNFGDMVKEKLVTYGDEWKDVNLADSQDGLYNPEKAKAEFAKAKSALQAEGVQFPIHLDMPVDQTATTKVQRVQSMKQSLEATLGADNVIIDIQQLQKDEVNNITYFAENAAGEDWDLSDNVGWGPDFADPSTYLDIIKPSVGESTKTYLGFDSGEDNVAAKKVGLYDYEKLVTEAGDETTDVAKRYDKYAAAQAWLTDSALIIPTTSRTGRPILSKMVPFTIPFALSGNKGTSEPVLYKYLELQDKAVTVDEYQKAQEKWMKEKEESNKKAQEDLAKHVK
# notes: also called Ali protein; source: E. coli XL10-Gold, pQE30 vector, purified (QIAexpress protein purification system)
# B2: recombinant AliB (natural protein)
# chain: CGNSSTASKTYNYVYSSDPSSLNYLAENRAATSDIVANLVDGLLENDQYGNIIPSLAEDWTVSQDGLTYTYKLRKDAKWFTSEGEEYAPVTAQDFVTGLQYAADKKSEALYLVQDSVAGLDDYITGKTSDFSTVGVKALDDQTVQYTLVKPELYWNSKTLATILFPVNADFLKSKGDDFGKADPSSILYNGPFLMKALVSKSAIEYKKNPNYWDAKNVFVDDVKLTYYDGSDQESLERNFTAGAYTTARLFPNSSSYEGIKEKYKNNIIYSMQNSTSYFFNFNLDRKSYNYTSKTSDIEKKSTQEAVLNKNFRQAINFAFDRTSYGAQSEGKEGATKILRNLVVPPNFVSIKGKDFGEVVASKMVNYGKEWQGINFADGQDPYYNPEKAKAKFAEAKKELEAKGVQFPIHLDKTVEVTDKVGIQGVSSIKQSIESVLGSDNVVIDIQQLTSDEFDSSGYFAQTAAQKDYDLYHGGWGPDYQDPSTYLDIFNTNSGGFLQNLGLEPGEANDKAKAVGLDVYTQMLEEANKEQDPAKRYEKYADIQAWLIDSSLVLPSVSRGGTPSLRRTVPFAAAYGLTGTKGVESYKYLKVQDKIVTTDEYAKAREKWLKEKEESNKKAQEELAKHVK
# notes: as for B1
# Target: T1, recombinant glycoprotein 96 (GP96) (human, UniProt P14625 22-803)
# T1 construct: The purification of GP96 and the fate of the GST tag are not described; also called GRP94; Grp94; source: E. coli BL21(DE3), pGEX-6P-1 vector; recombinant protein
# T1 sequence (P14625 22-803): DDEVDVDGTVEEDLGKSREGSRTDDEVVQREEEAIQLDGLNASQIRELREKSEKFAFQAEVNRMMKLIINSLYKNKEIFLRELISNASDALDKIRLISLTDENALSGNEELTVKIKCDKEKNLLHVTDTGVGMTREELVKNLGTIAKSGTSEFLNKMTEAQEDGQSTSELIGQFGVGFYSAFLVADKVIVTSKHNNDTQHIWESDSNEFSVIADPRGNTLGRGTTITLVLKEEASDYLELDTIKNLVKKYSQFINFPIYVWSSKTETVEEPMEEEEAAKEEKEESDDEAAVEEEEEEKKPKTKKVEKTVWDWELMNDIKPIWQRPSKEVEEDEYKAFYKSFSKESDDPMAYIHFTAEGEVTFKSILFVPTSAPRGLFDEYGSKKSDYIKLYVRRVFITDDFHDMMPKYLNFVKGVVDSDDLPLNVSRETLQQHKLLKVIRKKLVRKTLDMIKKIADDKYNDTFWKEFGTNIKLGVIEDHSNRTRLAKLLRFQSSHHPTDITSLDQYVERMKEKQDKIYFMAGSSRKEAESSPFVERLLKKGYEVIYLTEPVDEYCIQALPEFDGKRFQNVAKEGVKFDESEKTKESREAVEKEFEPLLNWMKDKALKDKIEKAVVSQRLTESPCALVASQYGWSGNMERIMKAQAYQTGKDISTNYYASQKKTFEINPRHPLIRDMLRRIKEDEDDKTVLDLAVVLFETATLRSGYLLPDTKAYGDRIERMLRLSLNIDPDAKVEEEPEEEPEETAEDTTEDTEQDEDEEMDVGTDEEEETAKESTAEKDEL
# Assay: SPR; BIAcore X-100; GP96 amine-coupled to a CM5 chip; AliA or AliB as analyte at 31.3-500 nM; HBS-P buffer (0.01 M HEPES pH 7.4, 0.15 M NaCl, 0.005% surfactant P20), 37°C, 30 ul/min; 1:1 Langmuir binding model
# Settings: both partners purified
Binder,Kd,koff,kon
B1,34 nM,0.000785 s⁻¹,23100 M⁻¹ s⁻¹
B2,48.5 nM,10.1 s⁻¹,2.09e+08 M⁻¹ s⁻¹
